Test results: the supplement of paper PMC7125110
± gives the standard error. For part of these data: Variants at the floor of the assay were thinned out.

B1: glmS ribozyme (parent)
chain: AUAAAAGCGCCAGAACUACAGAAAUGUAGUUGACGAGGAGGAGGUUUAUCGAAUUUUCGGCGGAUGCCUCCAAA

Legend:
Conditions in all cases: with glucosamine-6-phosphate
[1] = variants of: B1; test: kcat; higher = faster cleavage; RNA array
Method in brief: (§1)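 Weighted Michaelis–Menten fits across concentrations supplied kcat and KM, based on kobs from one- or two-exponential decay fits to normalised per-tile medians. The data came from barcoded ribozyme variants transcribed in situ by E. coli RNA polymerase on sequenced MiSeq chips and tracked at 37 °C by a hybridised Cy3 probe. Glucosamine-6-phosphate (40 μM to 10 mM) in HEPES/KCl/Mg(OAc)2 buffer was flowed in.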

[2] = variants of: B1; test: KM; higher = weaker cofactor use; RNA array
Method in brief: as §1

[3] = variants of: B1; test: self-cleavage kobs at 40 uM GlcN6P; higher = faster cleavage; RNA array
Method in brief: as §1

[4] = variants of: B1; test: self-cleavage kobs at 160 uM GlcN6P; higher = faster cleavage; RNA array
Method in brief: as §1

[5] = variants of: B1; test: self-cleavage kobs at 640 uM GlcN6P; higher = faster cleavage; RNA array
Method in brief: as §1

[6] = variants of: B1; test: self-cleavage kobs at 2500 uM GlcN6P; higher = faster cleavage; RNA array
Method in brief: as §1

[7] = variants of: B1; test: self-cleavage kobs at 10000 uM GlcN6P; higher = faster cleavage; RNA array
Method in brief: as §1

Row | Variant | kcat [1] [s⁻¹] | KM [2] [mM] | self-cleavage kobs at 40 uM GlcN6P [3] [s⁻¹] | self-cleavage kobs at 160 uM GlcN6P [4] [s⁻¹] | self-cleavage kobs at 640 uM GlcN6P [5] [s⁻¹] | self-cleavage kobs at 2500 uM GlcN6P [6] [s⁻¹] | self-cleavage kobs at 10000 uM GlcN6P [7] [s⁻¹]
1 | G26U U65G | 0.00661 ± 0.0013 | 4.57 ± 1.2 | 6.93e-05 ± 3.2e-05 | 0.00028 ± 0.00012 | 0.000733 ± 0.00016 | 0.00291 ± 0.0011 | 0.00449 ± 0.001
2 | G29U U55C | 0.00826 ± 0.0027 | 3.74 ± 1.7 | 0.000123 ± 1.8e-05 | 0.000198 ± 7.2e-05 | 0.00112 ± 0.0002 | 0.00427 ± 0.0009 | 0.00588 ± 0.00079
3 | G40C U46C | 0.00119 ± 0.00012 | 1.8 ± 0.28 |  | 9.41e-05 ± 1.9e-05 | 0.000304 ± 6.3e-05 | 0.000729 ± 0.00014 | 0.000967 ± 0.00024
4 | G40C C71A | 0.00654 ± 0.0028 |  | 0.000225 ± 3.8e-05 | 0.000451 ± 6.2e-05 | 0.00213 ± 0.00024 |  | 0.00527 ± 0.00096
5 | C11U A14U | 0.00134 ± 0.00035 | 2.13 ± 0.81 |  | 9.95e-05 ± 1.2e-05 | 0.000266 ± 3.5e-05 | 0.00104 ± 0.00013 | 0.000984 ± 0.00014
6 | G9U C50G | 2.48e-05 ± 1.1e-05 |  |  |  |  |  | 
7 | G29U A52G | 0.00036 ± 7.1e-05 | 3.34 ± 1.2 |  |  | 6.73e-05 ± 9.7e-06 | 0.000127 ± 2e-05 | 0.00029 ± 3.3e-05
8 | G13A A53G | 0.00138 ± 0.00018 | 4.28 ± 0.82 |  | 6.12e-05 ± 1.3e-05 | 0.00017 ± 2e-05 | 0.000498 ± 5.7e-05 | 0.000981 ± 0.00011
9 | U30C U47A | 0.000176 ± 9.3e-06 | 1.4 ± 0.19 |  |  | 5.72e-05 ± 8.2e-06 | 0.000106 ± 1.2e-05 | 0.00016 ± 1.6e-05
10 | C61A C67U | 4.47e-05 ± 1.3e-05 |  |  | 2.79e-05 ± 1.1e-05 | 6.41e-05 ± 1.4e-05 | 4.8e-05 ± 9.3e-06 | 
11 | U31G U56G C71A | 0.000443 ± 5.1e-05 | 3.05 ± 0.74 |  |  |  | 0.000191 ± 4.5e-05 | 0.00035 ± 9e-05
12 | G13A G32A | 0.00473 ± 0.0013 | 4.73 ± 1.9 | 4.73e-05 ± 7.3e-06 | 0.000204 ± 6.5e-05 | 0.000518 ± 0.00011 | 0.00129 ± 0.00022 | 0.00362 ± 0.00047
13 | G37C A52G | < 1e-05 |  | < 1e-05 |  |  |  | 
14 | A52G | 0.00319 ± 0.00046 | 4.41 ± 0.79 | 3.36e-05 ± 1e-06 | 0.000104 ± 3.3e-06 | 0.000385 ± 9.1e-06 | 0.00127 ± 5.6e-05 | 0.0022 ± 6.2e-05
